From paper PMC6639331, “Reconstitution of recombinant human CCR4-NOT reveals molecular insights into regulated deadenylation” come the findings set out here.

In series [1] the target is T1, CCR4-NOT FULL (CCR4a E240A:CAF1 D40A) (Homo sapiens, UniProt A5YKK6;Q9NZN8;O75175;Q92600;Q9ULM6;Q9UIV1;Q9H9A5;Q9UKZ1 …, E240A;D40A). Put plainly: EMSA; 1 uM protein, 100 nM RNA; EMSA: 20 mM Tris/HCl pH 7.5, 10 mM NaCl, 2 mM MgCl2, 0.1% BSA, 0.1% Orange G, 3% Ficoll 400; 100 nM RNA; 10% native PAGE in TBE pH 8.3; temperature not stated. As to conditions: protein: recombinant; tags: NOT1 N-His10 and C-StrepII x2; other tags removed; copies: 1;1;1;1;1;1;1;1; label: 5' 6-FAM. (In EMSA bound probe runs differently from free probe, usually more slowly.)

For series [2], the target named is T1, CCR4-NOT FULL (CCR4a E240A:CAF1 D40A). Put plainly: EMSA; 1 uM protein, 100 nM RNA; preferred; EMSA: 20 mM Tris/HCl pH 7.5, 10 mM NaCl, 2 mM MgCl2, 0.1% BSA, 0.1% Orange G, 3% Ficoll 400; 100 nM RNA; 10% native PAGE in TBE pH 8.3; temperature not stated. As to conditions: protein: recombinant; tags: NOT1 N-His10 and C-StrepII x2; other tags removed; copies: 1;1;1;1;1;1;1;1; label: labeled.

B1: 13+7-mer-A20 (ssRNA)
RNA: CACAUCCAACUUCUCUAAAUAAAAAAAAAAAAAAAAAAAA
On to B1, for which the binding result in series [1] is “binds”.

B2: poly(U)30 (ssRNA)
RNA: UUUUUUUUUUUUUUUUUUUUUUUUUUUUUU
B2: in series [2], the binding result is given as “binds”.

B3: 7-mer-A20 (ssRNA)
RNA: UCUAAAUAAAAAAAAAAAAAAAAAAAA
Regarding B3, the binding result in series [1] is reported as “binds”.
